Measurements taken from the supplement of paper PMC10126150.
± gives the standard deviation of the averaged measurements.

Tested on: ATP
Experiment: switch fluorescence ratio, 500 uM ATP over buffer (Cy3 cluster intensity, sum of 5 cycles each) (fold (ratio)); higher = stronger signal-on switching upon ATP binding; sequences stand for … in TCGTCGGCAGCGTCAGATGTGTATAAGAGACAGTTTTTTTTTTTTTTTTTTTTTTTTT…TC
Conditions: aptamer strand: ATP DNA aptamer (quencher-CACCTGGGGGAGTATTGCGGAGGAAGG + anchor), 100 nM annealed; ATP concentration: 500 uM
Method in brief: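 Exposure to 500 uM ATP lasted 15 min at 22 °C before imaging, and a selection-buffer image was taken beforehand, for Cy3-labelled switching-strand clusters on a modified Illumina MiSeq flow-cell annealed to 100 nM quencher-labelled ATP aptamer. Five buffer/ATP cycles were run with NaOH stripping and re-annealing between them. The fluorescence ratio per cluster is summed target-cycle over summed buffer-cycle Cy3 intensity, averaged per switch-domain sequence. Clusters outside 100-1000 RFU were excluded.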

Row | Sequence | switch fluorescence ratio
1 | TCGATCTTGG | 0.988 ± 0.011
2 | TCGATGCTAG | 1.03 ± 0.065
3 | TCGATGGTTT | 1.013 ± 0.01
4 | TCGATTCAGT | 0.9804 ± 0.0054
5 | TCGATTTGGC | 1 ± 0.045
6 | TCGCAGTTTC | 1.7002 ± 0.00038
7 | TCGCATTGGT | 1.24 ± 0.037
8 | TCGCCCGCGA | 1.51 ± 0.063
9 | TCGCGAAATG | 0.968 ± 0.025
10 | TCGCGCGGGT | 0.9887 ± 0.008
11 | TCGCGGTTAT | 1.06 ± 0.029
12 | TCGCGTGTTG | 1.017 ± 0.0032
13 | TCGCGTTGTG | 1.02 ± 0.034
14 | TCGCTGCGGA | 1.01 ± 0.018
15 | TCGCTGCTTG | 1.065 ± 0.0074
16 | TCGCTTATCG | 1.02 ± 0.072
17 | TCGCTTGGGA | 1.03 ± 0.017
18 | TCGCTTTTGG | 1.02 ± 0.033
19 | TCGGAAAAAT | 0.966 ± 0.0099
20 | TCGGAAGGGT | 0.9933 ± 0.0075
21 | TCGGAATGTG | 1.01 ± 0.045
22 | TCGGAATGTT | 1.02 ± 0.025
23 | TCGGAATTGC | 1.56 ± 0.33
24 | TCGGACACAT | 1.07 ± 0.03
25 | TCGGACATGG | 1.015 ± 0.0082

Row | Sequence | switch fluorescence ratio
26 | TCGGACGGGC | 1.26 ± 0.18
27 | TCGGACTCGT | 1.03 ± 0.044
28 | TCGGAGACTC | 1.05 ± 0.022
29 | TCGGAGATCG | 0.9443 ± 0.001
30 | TCGGAGCTTG | 1.16 ± 0.064
31 | TCGGAGGAGC | 1.05 ± 0.026
32 | TCGGAGGCTT | 1 ± 0.027
33 | TCGGAGGGTT | 1.016 ± 0.0052
34 | TCGGAGTGGG | 1.03 ± 0.043
35 | TCGGATTCGA | 1.015 ± 0.0092
36 | TCGGATTGGG | 0.993 ± 0.033
37 | TCGGCAATTT | 1.4 ± 0.34
38 | TCGGCAGCGG | 1.01 ± 0.034
39 | TCGGCAGGGA | 1.01 ± 0.051
40 | TCGGCCACAG | 1.05 ± 0.02
41 | TCGGCCAGAG | 1.01 ± 0.012
42 | TCGGCGAAAA | 1.84 ± 1.1
43 | TCGGCGGCGG | 0.974 ± 0.027
44 | TCGGCGGGCG | 0.986 ± 0.043
45 | TCGGCGTAAG | 0.998 ± 0.03
46 | TCGGCGTTGG | 1.03 ± 0.026
47 | TCGGCTGTAT | 1.69 ± 0.94
48 | TCGGCTTAGC | 0.981 ± 0.012
49 | TCGGCTTCCT | 1.27 ± 0.031
50 | TCGGGAAGGG | 0.991 ± 0.014

Row | Sequence | switch fluorescence ratio
51 | TCGGGAATTT | 1.067 ± 0.0091
52 | TCGGGACATA | 1.02 ± 0.041
53 | TCGGGACGTT | 1.02 ± 0.044
54 | TCGGGAGAAG | 1.01 ± 0.013
55 | TCGGGAGCGT | 1.01 ± 0.033
56 | TCGGGAGTTG | 0.952 ± 0.024
57 | TCGGGATTGA | 0.98 ± 0.013
58 | TCGGGATTTT | 0.997 ± 0.041
59 | TCGGGCAGTG | 0.99 ± 0.03
60 | TCGGGCGCAT | 1.27 ± 0.026
61 | TCGGGCGG | 1.03 ± 0.014
62 | TCGGGCTTTT | 0.969 ± 0.026
63 | TCGGGGAAAT | 1.01 ± 0.023
64 | TCGGGGAATT | 0.989 ± 0.032
65 | TCGGGGCCGC | 0.981 ± 0.11
66 | TCGGGGCCTT | 0.998 ± 0.033
67 | TCGGGGCTGG | 1.02 ± 0.029
68 | TCGGGGGCCT | 0.959 ± 0.022
69 | TCGGGGGGAC | 1.03 ± 0.036
70 | TCGGGGGGCG | 0.977 ± 0.034
71 | TCGGGGGGCT | 1.06 ± 0.048
72 | TCGGGGGGGT | 1.06 ± 0.19
73 | TCGGGGGGTG | 1.01 ± 0.041
74 | TCGGGGTATC | 1.03 ± 0.0046
75 | TCGGGGTATG | 0.982 ± 0.014

Row | Sequence | switch fluorescence ratio
76 | TCGGGGTGTT | 1.001 ± 0.0096
77 | TCGGGTAAAG | 0.9947 ± 0.0053
78 | TCGGGTATGT | 0.977 ± 0.029
79 | TCGGGTCTAC | 1.01 ± 0.018
80 | TCGGGTGGTT | 1 ± 0.016
81 | TCGGTAATAT | 1.08 ± 0.16
82 | TCGGTAGGTG | 1.028 ± 0.0052
83 | TCGGTCAGTT | 0.971 ± 0.012
84 | TCGGTCCCAG | 1.03 ± 0.014
85 | TCGGTGGCGT | 1.02 ± 0.048
86 | TCGGTGGGGA | 0.992 ± 0.087
87 | TCGGTGGGGG | 1.01 ± 0.051
88 | TCGGTGGGTA | 0.983 ± 0.013
89 | TCGGTGTTTC | 0.962 ± 0.017
90 | TCGGTTAAGT | 1.02 ± 0.031
91 | TCGGTTGAAC | 1.01 ± 0.031
92 | TCGGTTGAGG | 0.983 ± 0.025
93 | TCGGTTGCTA | 1.05 ± 0.023
94 | TCGGTTGTG | 0.9644 ± 0.0092
95 | TCGGTTTAGC | 1.02 ± 0.035
96 | TCGGTTTTAC | 1.033 ± 0.0061
97 | TCGTAAATTT | 0.973 ± 0.055
98 | TCGTACTGTG | 1.02 ± 0.1
99 | TCGTAGAGGA | 0.995 ± 0.032
100 | TCGTAGAGGG | 1.008 ± 0.0013

Row | Sequence | switch fluorescence ratio
101 | TCGTAGCAGG | 1.12 ± 0.14
102 | TCGTATGGGT | 1 ± 0.045
103 | TCGTCGCAGG | 1.1 ± 0.058
104 | TCGTCGTGTG | 1 ± 0.028
105 | TCGTCGTTTG | 0.991 ± 0.01
106 | TCGTCTTTTG | 0.997 ± 0.015
107 | TCGTGAGCGG | 0.996 ± 0.034
108 | TCGTGATTTT | 1 ± 0.035
109 | TCGTGCACGA | 1.018 ± 0.0062
110 | TCGTGCTTTG | 1.0145 ± 0.00045
111 | TCGTGGGGAG | 0.982 ± 0.015
112 | TCGTGGGGTA | 0.9761 ± 0.007
113 | TCGTGGTGGG | 0.994 ± 0.012
114 | TCGTGTCGG | 0.98 ± 0.021
115 | TCGTGTGGGT | 1.01 ± 0.023
116 | TCGTGTGGTT | 0.978 ± 0.035
117 | TCGTGTTTGT | 1.02 ± 0.011
118 | TCGTTAATGA | 1.02 ± 0.02
119 | TCGTTATTCG | 0.979 ± 0.021
120 | TCGTTATTGG | 0.9844 ± 0.0023
121 | TCGTTCATGG | 0.979 ± 0.039
122 | TCGTTCGGCT | 1.01 ± 0.044
123 | TCGTTCGGGG | 1.041 ± 0.0049
124 | TCGTTCGTCG | 1.04 ± 0.06
125 | TCGTTCTGGG | 0.996 ± 0.023

Row | Sequence | switch fluorescence ratio
126 | TCGTTGAGCA | 0.994 ± 0.018
127 | TCGTTGCAGG | 1.05 ± 0.092
128 | TCGTTGCTAG | 0.982 ± 0.059
129 | TCGTTGGCTT | 1 ± 0.011
130 | TCGTTTATCA | 0.9771 ± 0.0073
131 | TCGTTTCGGG | 0.985 ± 0.017
132 | TCGTTTGTAT | 0.972 ± 0.005
133 | TCGTTTTATT | 0.9925 ± 0.0076
134 | TCGTTTTCCC | 1.08 ± 0.14
135 | TCGTTTTGAC | 1.02 ± 0.023
136 | TCGTTTTGAG | 0.971 ± 0.039
137 | TCGTTTTGCA | 0.991 ± 0.013
138 | TCGTTTTGGG | 0.9988 ± 0.0056
139 | TCTAAAGATT | 1.011 ± 0.0027
140 | TCTAACATGC | 1.15 ± 0.12
141 | TCTAACTTAG | 1.043 ± 0.0025
142 | TCTAAGACGT | 0.957 ± 0.018
143 | TCTAAGAGTC | 0.975 ± 0.039
144 | TCTAAGCTGG | 0.988 ± 0.014
145 | TCTAAGGCCC | 0.986 ± 0.011
146 | TCTAATTAGT | 0.993 ± 0.013
147 | TCTAATTGTT | 0.9991 ± 0.0053
148 | TCTACAGTCG | 1.02 ± 0.023
149 | TCTACGGCGT | 0.9991 ± 0.0059
150 | TCTACGGTGC | 1.5 ± 0.24

Row | Sequence | switch fluorescence ratio
151 | TCTACTGGGT | 0.993 ± 0.033
152 | TCTAGAAGCG | 1.0039 ± 0.00082
153 | TCTAGCACGG | 1.06 ± 0.023
154 | TCTAGGAGGG | 0.998 ± 0.016
155 | TCTAGGCCTC | 1.019 ± 0.0038
156 | TCTAGGTAGA | 0.993 ± 0.026
157 | TCTAGTAAAT | 1.01 ± 0.015
158 | TCTATCAGTG | 1.02 ± 0.018
159 | TCTATCTTTA | 0.996 ± 0.019
160 | TCTATGACAA | 1.01 ± 0.039
161 | TCTATGAGGC | 0.988 ± 0.024
162 | TCTATGGGGT | 1 ± 0.019
163 | TCTATTAAGG | 1 ± 0.013
164 | TCTATTACGC | 1 ± 0.047
165 | TCTATTCCCT | 1.02 ± 0.027
166 | TCTCACTGCC | 1.08 ± 0.028
167 | TCTCAGAGTA | 1 ± 0.012
168 | TCTCAGGGGT | 1.07 ± 0.094
169 | TCTCATAGGT | 1.04 ± 0.038
170 | TCTCATTCAG | 1.06 ± 0.14
171 | TCTCGGAAAA | 0.996 ± 0.021
172 | TCTCGTCAGC | 1.087 ± 0.0041
173 | TCTCGTGGGA | 1.01 ± 0.03
174 | TCTCGTTTT | 0.979 ± 0.025
175 | TCTCTGTCGA | 1.4 ± 0.11

Row | Sequence | switch fluorescence ratio
176 | TCTCTTAAGT | 0.989 ± 0.012
177 | TCTCTTTTTA | 1.02 ± 0.023
178 | TCTGAAGATT | 0.999 ± 0.016
179 | TCTGAAGGTG | 1.28 ± 0.22
180 | TCTGATTTGT | 1.01 ± 0.013
181 | TCTGCCATTT | 1.44 ± 0.63
182 | TCTGCCTTTT | 1.05 ± 0.074
183 | TCTGGAGCCG | 1.04 ± 0.022
184 | TCTGGAGGGG | 1.022 ± 0.0073
185 | TCTGGCGCCG | 1.03 ± 0.017
186 | TCTGGGAGAA | 0.992 ± 0.042
187 | TCTGGGGAAT | 1 ± 0.035
188 | TCTGGGGGAG | 0.977 ± 0.029
189 | TCTGGGGTTA | 1 ± 0.018
190 | TCTGGGTGCC | 1.02 ± 0.055
191 | TCTGGTACAG | 0.969 ± 0.02
192 | TCTGGTCCGG | 0.997 ± 0.015
193 | TCTGGTGTGG | 0.994 ± 0.053
194 | TCTGGTTGAG | 1.02 ± 0.019
195 | TCTGTAAATT | 0.991 ± 0.03
196 | TCTGTAGGTT | 1.03 ± 0.024
197 | TCTGTATTCG | 1.005 ± 0.0033
198 | TCTGTATTTG | 0.981 ± 0.028
199 | TCTGTGTAGC | 1 ± 0.027
200 | TCTGTTAATT | 1.01 ± 0.014
